Where a chain is given by its changes, count along the chain named.
T1: Human GPA33 on GPA33+ colorectal cancer cell lines (Colo 205, LS 174T, SW 1222) (human, UniProt Q99795 22-319)
T1 construct: Endogenous GPA33 on human colorectal cancer cell lines; also called surface human GPA33; GPA33+ tumor cell lines
T1 sequence: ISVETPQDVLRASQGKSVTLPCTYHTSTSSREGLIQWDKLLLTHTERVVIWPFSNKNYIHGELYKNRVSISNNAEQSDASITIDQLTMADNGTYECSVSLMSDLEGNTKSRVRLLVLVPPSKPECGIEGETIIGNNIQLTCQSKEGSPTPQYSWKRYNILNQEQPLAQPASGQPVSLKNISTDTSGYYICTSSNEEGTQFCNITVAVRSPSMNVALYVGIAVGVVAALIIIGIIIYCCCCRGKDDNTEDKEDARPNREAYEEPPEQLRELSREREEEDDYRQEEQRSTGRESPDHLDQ

T2: Human GPA33 (recombinant protein, Novoprotein) (human, UniProt Q99795 22-235)
T2 construct: Bought recombinant protein immobilized on a CM5 chip; also called GPA33 antigen; tumor antigen GPA33
T2 sequence: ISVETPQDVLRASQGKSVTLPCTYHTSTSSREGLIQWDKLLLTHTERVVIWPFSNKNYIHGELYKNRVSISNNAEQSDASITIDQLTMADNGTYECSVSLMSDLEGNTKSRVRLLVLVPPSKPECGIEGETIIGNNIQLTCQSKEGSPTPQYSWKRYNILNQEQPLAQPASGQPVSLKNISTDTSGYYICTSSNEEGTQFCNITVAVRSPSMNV

B1: TC160 (bispecific antibody)
chain: DIQMTQSQSSLSTSVGDRVTITCKASQNVRTVVAWYQQKPGKSPKTLIYLASNRHTGVPSRFSGSGSGTEFTLTISNVQPEDFADYFCLQHWSYPLTFGSGTKLEIKRGGGGSGGGGSGGGGSGGGGSGGGGSGGGGSEVQLVESGGGLVKPGGSLRLSCAASGFAFSTYDMSWVRQAPGKRLEWVATISSGGSYTYYLDSVKGRFTISRDNAKNSLYLQMNSLRAEDTAVYYCAPTTVVPFAYWGQGTLVTVSSGGGGSGGGGSGGGGSGGGGSHVQLVESGGGLVQPGGSLRLSCAASGFSLTDYGVHWVRQAPGKGLEWLGVIWSGGGTAYNTALISRFTISRDNSKNTLYLQMNSLRAEDTAVYYCARRGSYPYNYFDAWGCGTLVTVSSGGGGSGGGGSGGGGSGGGGSGGGGSGGGGSQAVVTQEPSLTVSPGGTVTLTCGSSTGAVTASNYANWVQQKPGQCPRGLIGGHNNRPPGVPARFSGSLLGGKAALTLLGAQPEDEAEYYCALWYSDHWVIGGGTKLTVLGTPLGDTTHTSGKPLDGEYFTLQIRGRERFEMFRELNEALELKDAQAGKEPGGSGGAPHHHHHH
notes: Previously described GPA33xDOTA SADA clone, with the other VH/VL orientation than TC159; Carries the p53 SADA (tetramerization) domain
B2: BC155 (bispecific antibody, human IgG1, kappa, N297A)
heavy: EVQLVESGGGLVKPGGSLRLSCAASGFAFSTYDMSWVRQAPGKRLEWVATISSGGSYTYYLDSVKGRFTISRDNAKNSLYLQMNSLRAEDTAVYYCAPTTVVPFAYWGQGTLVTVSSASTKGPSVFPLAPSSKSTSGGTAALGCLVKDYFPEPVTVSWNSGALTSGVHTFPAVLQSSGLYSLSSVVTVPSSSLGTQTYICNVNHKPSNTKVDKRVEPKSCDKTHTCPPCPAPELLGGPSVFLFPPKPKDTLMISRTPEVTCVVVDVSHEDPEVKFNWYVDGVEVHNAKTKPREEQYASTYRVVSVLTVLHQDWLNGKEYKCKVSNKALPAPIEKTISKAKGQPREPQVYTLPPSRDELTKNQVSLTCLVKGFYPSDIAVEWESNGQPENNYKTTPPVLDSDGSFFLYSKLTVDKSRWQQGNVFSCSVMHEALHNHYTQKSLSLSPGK
light: DIQMTQSQSSLSTSVGDRVTITCKASQNVRTVVAWYQQKPGKSPKTLIYLASNRHTGVPSRFSGSGSGTEFTLTISNVQPEDFADYFCLQHWSYPLTFGSGTKLEIKRTVAAPSVFIFPPSDEQLKSGTASVVCLLNNFYPREAKVQWKVDNALQSGNSQESVTEQDSKDSTYSLSSTLTLSKADYEKHKVYACEVTHQGLSSPVTKSFNRGECTSGGGGSGGGGSGGGGSHVQLVESGGGLVQPGGSLRLSCAASGFSLTDYGVHWVRQAPGKGLEWLGVIWSGGGTAYNTALISRFTISRDNSKNTLYLQMNSLRAEDTAVYYCARRGSYPYNYFDAWGCGTLVTVSSGGGGSGGGGSGGGGSGGGGSGGGGSGGGGSQAVVTQEPSLTVSPGGTVTLTCGSSTGAVTASNYANWVQQKPGQCPRGLIGGHNNRPPGVPARFSGSLLGGKAALTLLGAQPEDEAEYYCALWYSDHWVIGGGTKLTVLG
notes: Previously described GPA33xDOTA IgG-[L]-scFv clone; The light chain entry carries the anti-DOTA scFv at its C-terminus
B3: BC105 (bispecific antibody, human IgG1, kappa, N297A)
heavy: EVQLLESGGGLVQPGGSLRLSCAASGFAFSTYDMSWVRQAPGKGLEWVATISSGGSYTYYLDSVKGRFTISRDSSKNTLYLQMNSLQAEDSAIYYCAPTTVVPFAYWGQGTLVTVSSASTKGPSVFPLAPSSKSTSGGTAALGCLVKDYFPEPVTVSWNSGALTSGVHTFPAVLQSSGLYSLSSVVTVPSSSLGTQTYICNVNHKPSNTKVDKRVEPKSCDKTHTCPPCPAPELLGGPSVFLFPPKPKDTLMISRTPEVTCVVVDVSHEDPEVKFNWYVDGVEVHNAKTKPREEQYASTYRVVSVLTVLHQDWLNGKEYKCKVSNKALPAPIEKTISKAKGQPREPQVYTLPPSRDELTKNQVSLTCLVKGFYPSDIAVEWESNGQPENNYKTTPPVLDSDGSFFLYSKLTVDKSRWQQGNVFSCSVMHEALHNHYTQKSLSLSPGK
light: DIQMTQSPSSLSVSVGDRVTITCKASQNVRTVVAWYQQKPGLAPKTLIYLASNRHTGVPSRFSGSGSGTDFTFTISSLQPEDIATYFCQQHWSYPLTFGQGTKVEVKRTVAAPSVFIFPPSDEQLKSGTASVVCLLNNFYPREAKVQWKVDNALQSGNSQESVTEQDSKDSTYSLSSTLTLSKADYEKHKVYACEVTHQGLSSPVTKSFNRGECGGGGSGGGGSASHVKLQESGPGLVQPSQSLSLTCTVSGFSLTDYGVHWVRQSPGKGLEWLGVIWSGGGTAYNTALISRLNIYRDNSKNQVFLEMNSLQAEDTAMYYCARRGSYPYNYFDAWGCGTTVTVSSGGGGSGGGGSGGGGSQAVVIQESALTTPPGETVTLTCGSSTGAVTASNYANWVQEKPDHCFTGLIGGHNNRPPGVPARFSGSLIGDKAALTIAGTQTEDEAIYFCALWYSDHWVIGGGTRLTVLG
notes: Previously described GPA33xDOTA IgG-[L]-scFv clone; The light chain entry carries the anti-DOTA scFv at its C-terminus; also called GPA33 BsAb-IgG (BC105); GPA33 clone BC105 BsAb
B4: TC234 (bispecific antibody)
chain: EVQLVESGGGLVDPGGSLRLSCAASGFAFSTYDMSWVRQAPGKGLEWVSTISSGGSYTYYADSVKGRFTISRDNAKNSLYLQMNSLRAEDTAVYYCAPTTVVPFAYWGQGTLVTVSAGGGGSGGGGSGGGGSGGGGSGGGGSGGGGSDIQMTQSPSSLSASVGDRVTITCKASQNVRTVVAWYQQKPGKAPKTLIYLASNRHTGVPSRFSGSGSGTEFTLTISNLQPEDFATYYCLQHWSYPLTFGSGTKLEVKRGGGGSGGGGSGGGGSGGGGSHVQLVESGGGLVQPGGSLRLSCAASGFSLTDYGVHWVRQAPGKGLEWLGVIWSGGGTAYNTALISRFTISRDNSKNTLYLQMNSLRAEDTAVYYCARRGSYPYNYFDAWGCGTLVTVSSGGGGSGGGGSGGGGSGGGGSGGGGSGGGGSQAVVTQEPSLTVSPGGTVTLTCGSSTGAVTASNYANWVQQKPGQCPRGLIGGHNNRPPGVPARFSGSLLGGKAALTLLGAQPEDEAEYYCALWYSDHWVIGGGTKLTVLGTPLGDTTHTSGKPLDGEYFTLQIRGRERFEMFRELNEALELKDAQAGKEPGGSGGAPHHHHHH
notes: pI variant of TC170 with a single mutation; Carries the p53 SADA (tetramerization) domain; also called GPA33xDOTA SADA; pI variant of TC170
B5: TC213 (bispecific antibody)
chain: B4 chain with K76A
notes: pI variant of TC170 with a double mutation in the GPA33 scFv; Carries the p53 SADA (tetramerization) domain; also called GPA33xDOTA SADA; pI variant of TC170
B6: TC235 (bispecific antibody)
chain: B4 chain with K76A, K189Q
notes: pI variant of TC170 with a triple mutation in the GPA33 scFv; Carries the p53 SADA (tetramerization) domain; also called GPA33xDOTA SADA; pI variant of TC170

biological target: T1, Human GPA33 on GPA33+ colorectal cancer …; test: flow cytometry, SW 1222 cells

Binder	IC50 [nM]
B1	0.36

biological target: T2, Human GPA33 (recombinant protein, …); test: SPR (Biacore), human GPA33 immobilised on the chip; KD relative to that of BC015
Procedure, shortened: (§1)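 On a Biacore system, antibodies at five concentrations (2-fold serial dilutions, highest 20 nM) were passed over recombinant human GPA33 (Novoprotein) immobilised on a CM5 sensor chip. Rate constants and the dissociation constant (KD) came from kinetic fitting of the surface plasmon resonance sensorgrams. Each KD is expressed relative to the KD of a reference molecule, as a ratio.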

Binder	Fold change of KD (relative to BC015, lower is better)
B2	1.45
B3	10.2

biological target: T2, Human GPA33 (recombinant protein, …); test: SPR (Biacore), human GPA33 immobilized on CM5 chip, two-state fit, kd1
Procedure, shortened: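 The off-rate (kd1) came from surface plasmon resonance, with sensorgrams fitted to a two-state binding model to derive the kinetic parameters. Recombinant human GPA33 from Novoprotein was immobilised on a CM5 chip in a Biacore T100. Antibodies were flowed over at five concentrations, made as 2-fold serial dilutions starting at 20 nM. The parent IgG1 was run at 25° C, and the bispecific formats at both 25° C and 37° C.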

Binder	koff [s⁻¹]
B2	0.00212
B4	0.000966
B5	0.000857
B6	0.000981
B3	0.0236
B1	0.00202

biological target: T1, Human GPA33 on GPA33+ colorectal cancer …; test: FACS binding to LS174T cells (GPA33+)

Binder	EC50 [nM]	fold change of binding EC50 (relative to TC170, lower is better)
B4	0.21	0.68
B5	0.23	0.74
B6	0.22	0.71
B1	–	1.81

biological target: T1, Human GPA33 on GPA33+ colorectal cancer …; test: FACS binding to SW1222 cells (GPA33+)

Binder	EC50 [nM]	fold change of binding EC50 (relative to TC170, lower is better)
B4	2.05	1.24
B5	1.05	0.64
B6	1.03	0.62
B1	–	0.22

biological target: T2, Human GPA33 (recombinant protein, …); test: SPR (Biacore), human GPA33 immobilized on CM5 chip, two-state fit, ka1
Description: (§2) SPR analysis. Human GPA33 (Novoprotein, Summit, NJ) was immobilized on CM5 chips. Five concentrations of 2-fold serially diluted huA33 IgG1 or huA33-BsAbs (starting at 20 nM) were flowed over the chip using a Biacore™ T100 system (GE Healthcare, Chicago, IL). Binding kinetics of huA33 were measured at 25° C. and binding kinetics of huA33-BsAbs were measured at both 25° C. and 37° C. The sensorgrams were fitted with two state binding model for both to derive kinetic parameters.

Binder	kon [M⁻¹ s⁻¹]
B2	4.13e+06
B4	4.65e+06
B5	3.44e+06
B6	3.38e+06
B3	4.43e+06
B1	3.43e+06

biological target: T1, Human GPA33 on GPA33+ colorectal cancer …; test: flow cytometry, LS 174T cells

Binder	IC50 [nM]
B1	0.56

biological target: T1, Human GPA33 on GPA33+ colorectal cancer …; test: FACS titration on Colo205 cells, geometric mean MFI

Binder	EC50 [nM]
B4	0.71
B5	0.55
B6	0.53

biological target: T2, Human GPA33 (recombinant protein, …); test: SPR (Biacore), human GPA33 immobilised on the chip; KD relative to that of TC170
Procedure, shortened: as §1

Binder	Fold change of KD (relative to TC170, lower is better)
B4	0.8
B5	1.4
B6	1.5
B1	3.4

biological target: T1, Human GPA33 on GPA33+ colorectal cancer …; test: FACS titration on LS174T cells, geometric mean MFI [Cont.]

Binder	EC50 [nM]
B4	0.21
B5	0.23
B6	0.22

biological target: T1, Human GPA33 on GPA33+ colorectal cancer …; test: flow cytometry, Colo 205 cells; Colo 205 cells

Binder	EC50 [nM]
B1	1.2

biological target: T1, Human GPA33 on GPA33+ colorectal cancer …; test: FACS titration on SW1222 cells, geometric mean MFI [Cont.]

Binder	EC50 [nM]
B4	2.05
B5	1.05
B6	1.03

biological target: T1, Human GPA33 on GPA33+ colorectal cancer …; test: FACS binding to Colo205 cells (GPA33+)

Binder	EC50 [nM]	fold change of binding EC50 (relative to TC170, lower is better)
B4	0.71	0.96
B5	0.55	0.74
B6	0.53	0.72
B1	–	1.62

biological target: T2, Human GPA33 (recombinant protein, …); test: SPR (Biacore), human GPA33 immobilized on CM5 chip, two-state fit
Description: as §2

Binder	Kd [nM]	ka2 [s⁻¹]	kd2 [s⁻¹]
B2	0.171	0.00328	0.00164
B4	0.0122	0.00566	0.000353
B5	0.0218	0.00636	0.000611
B6	0.0242	0.00561	0.00051
B3	1.21	0.00238	0.000697
B1	0.0518	0.00678	0.000654

Source: patent US20240026037A1 (Memorial Sloan Kettering, published 2024)
